According to patent publication US20230091105A1 (NORTHWESTERN UNIVERSITY, published 2023):

Legend:
Tie2 receptor on HUVEC [1] = molecular target: T1, Tie2 receptor on HUVEC (human, UniProt Q02763 23-1124); assay: cell-based or functional assay
Tie2 receptor on HUVEC [2] = molecular target: T1, Tie2 receptor on HUVEC; assay: summary sentence of Example 3 (co-IP and HUVEC activation)

T1 sequence (Q02763 23-1124): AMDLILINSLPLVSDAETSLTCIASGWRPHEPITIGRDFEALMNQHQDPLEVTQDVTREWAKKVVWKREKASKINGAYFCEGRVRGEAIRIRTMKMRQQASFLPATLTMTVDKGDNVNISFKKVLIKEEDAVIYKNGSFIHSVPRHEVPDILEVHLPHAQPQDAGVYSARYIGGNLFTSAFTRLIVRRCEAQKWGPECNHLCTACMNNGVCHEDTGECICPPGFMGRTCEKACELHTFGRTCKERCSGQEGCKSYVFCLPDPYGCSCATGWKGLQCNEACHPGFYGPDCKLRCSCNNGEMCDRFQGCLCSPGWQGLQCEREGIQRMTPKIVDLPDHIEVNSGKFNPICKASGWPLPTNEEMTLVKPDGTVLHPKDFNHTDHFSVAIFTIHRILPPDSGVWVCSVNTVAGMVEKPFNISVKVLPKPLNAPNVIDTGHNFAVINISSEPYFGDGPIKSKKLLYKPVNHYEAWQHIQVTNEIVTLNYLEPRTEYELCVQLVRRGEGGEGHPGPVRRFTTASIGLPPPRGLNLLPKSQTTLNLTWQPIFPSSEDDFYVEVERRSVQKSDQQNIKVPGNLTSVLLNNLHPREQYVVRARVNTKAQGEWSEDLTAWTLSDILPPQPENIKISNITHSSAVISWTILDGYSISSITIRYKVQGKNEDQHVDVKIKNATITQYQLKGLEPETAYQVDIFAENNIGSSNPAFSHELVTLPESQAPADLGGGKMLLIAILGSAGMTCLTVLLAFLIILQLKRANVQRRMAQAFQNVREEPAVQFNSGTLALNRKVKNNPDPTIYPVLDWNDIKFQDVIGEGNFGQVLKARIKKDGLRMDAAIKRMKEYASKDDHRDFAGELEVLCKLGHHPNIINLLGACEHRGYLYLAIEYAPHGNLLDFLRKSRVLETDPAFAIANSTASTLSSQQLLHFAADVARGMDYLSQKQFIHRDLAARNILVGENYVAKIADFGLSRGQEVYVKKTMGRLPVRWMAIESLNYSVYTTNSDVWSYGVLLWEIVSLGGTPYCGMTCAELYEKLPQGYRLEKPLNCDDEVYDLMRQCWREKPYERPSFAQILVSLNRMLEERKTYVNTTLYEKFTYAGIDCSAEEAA

Row | phosphorylation level of AKT (pAKT) in HUVEC treated for 20 minutes, EC50 (Tie2 receptor on HUVEC [1]) [ng/mL] | binding result (Tie2 receptor on HUVEC [2]) | Binder
1 | 87 |  | ANG1-C4BP (designed binder, not shown: small tags and cut ends) KPFRDCADVYQAGFNKSGIYTIYINNMPEPKKVFCNMDVNGGGWTVIQHREDGSLDFQRGWKEYKMGFGNPSGEYWLGNEFIFAITSQRQYMLRIELMDWEGNRAYSQYDRFHIGNEKQNYRLYLKGHTGTAGKQSSLILHGADFSTKDADNDNCMCKCALMLTGGWWFDACGPSNLNGMFYTAGQNHGKLNGIKWHYFKGPSYSLRSTTMMIRPLDFGGGGSETPEGCEQVLTGKRLMQCLPNPEDVKMALEVYKLSLEIEQLELQRDSARQSTLDKEL
2 |  | binds | C4BP-ANG1 (designed binder, not shown: small tags and cut ends, Heptamer through disulfide-bridged C4BP segment; also called C4BP-ANG1 chimeric fusion protein) ETPEGCEQVLTGKRLMQCLPNPEDVKMALEVYKLSLEIEQLELQRDSARQSTLDKELGGGGSKPFRDCADVYQAGFNKSGIYTIYINNMPEPKKVFCNMDVNGGGWTVIQHREDGSLDFQRGWKEYKMGFGNPSGEYWLGNEFIFAITSQRQYMLRIELMDWEGNRAYSQYDRFHIGNEKQNYRLYLKGHTGTAGKQSSLILHGADFSTKDADNDNCMCKCALMLTGGWWFDACGPSNLNGMFYTAGQNHGKLNGIKWHYFKGPSYSLRSTTMMIRPLDF
